Results: patent publication CN107043422A (CHENGDU KANGHONG BIOLOGICAL TECH CO LTD, dated 2017)
Numbering of substitutions follows the chain as printed.

B1: KH-A (antibody, human IgG4 S228P, kappa, V domains shown)
VH: QVQLVQSGPELKKPGASVKVSCKASGYTFTNYGMNWVRQAPGQGLEWMGWINTYTGETTYADDFKGRFVFSLDTSVSTAYLQISSLKAEDTAVYYCEREGGVNYWGQGTLVTVSS
VL: DIQVTQSPSSLSASVGDRVTITCITSTDIDDDMNWYQQKPGKVPKLLISGGATLRPGVPSRFSGSGSGTDFTLTISSLQPEDVATYYCLQSDSLPYTFGQGTKLEIKR
notes: Full-length humanized anti-complement factor D antibody expressed in CHO-S cells; also called 抗体KH-A; 全长抗体KH-A
B2: KH-F (antibody, human IgG4 S228P, kappa, V domains shown)
VH: B1 VH with Y104S
VL: B1 VL with M33V, A52N, L89M
notes: also called 全长抗体KH-F
B3: KH021 (Fab, V domains shown)
VH: B1 VH with Y104S
VL: B1 VL with M33V, A52N, L89M
notes: Fab expressed in the E. coli periplasm; also called Fab抗体KH021
B4: KH027 (Fab, V domains shown)
VH: B1 VH
VL: B1 VL
notes: Fab expressed in the E. coli periplasm; also called Fab抗体KH027

Tests used:
[1] = target: T1, 大鼠血清中的补体因子D (rat serum complement factor D) (大鼠 (rat), UniProt P32038 26-263); assay: cell-based or functional assay
T1 sequence (looked up): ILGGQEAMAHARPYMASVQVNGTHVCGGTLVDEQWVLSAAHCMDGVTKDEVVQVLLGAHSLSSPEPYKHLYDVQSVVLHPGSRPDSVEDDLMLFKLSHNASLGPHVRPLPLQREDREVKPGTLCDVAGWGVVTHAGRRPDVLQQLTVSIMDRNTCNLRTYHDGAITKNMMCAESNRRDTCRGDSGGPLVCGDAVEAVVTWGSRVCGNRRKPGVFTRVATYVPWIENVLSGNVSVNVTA

人CFD蛋白 = target: T2, 人CFD蛋白 (人 (human), UniProt P00746 26-253, limits assumed); assay: BLI (Octet QK), human CFD on Ni-NTA biosensor, KH-A at 125 nM in rabbit vitreous fluid
T2 construct: also called human complement factor D
T2 sequence (P00746 26-253 limits assumed): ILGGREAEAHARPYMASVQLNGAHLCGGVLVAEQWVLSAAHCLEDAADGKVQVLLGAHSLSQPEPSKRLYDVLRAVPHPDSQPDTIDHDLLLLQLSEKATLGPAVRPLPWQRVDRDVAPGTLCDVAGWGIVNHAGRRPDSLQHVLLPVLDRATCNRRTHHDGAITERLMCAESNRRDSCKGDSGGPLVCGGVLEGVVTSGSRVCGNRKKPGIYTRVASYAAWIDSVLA

猪CFD [2] = target: T3, 猪CFD (猪 (pig), UniProt P51779 27-259, limits assumed); assay: BLI (Octet QK), antibody on Protein A biosensor, CFD transfection supernatant in solution
T3 construct: Transiently expressed in DG44 cells; The culture supernatant was used unpurified in the Octet assay; also called pig CFD; 猪(GeneID:396877)
T3 sequence (P51779 other isoform, or with tags, fused parts or gaps limits assumed): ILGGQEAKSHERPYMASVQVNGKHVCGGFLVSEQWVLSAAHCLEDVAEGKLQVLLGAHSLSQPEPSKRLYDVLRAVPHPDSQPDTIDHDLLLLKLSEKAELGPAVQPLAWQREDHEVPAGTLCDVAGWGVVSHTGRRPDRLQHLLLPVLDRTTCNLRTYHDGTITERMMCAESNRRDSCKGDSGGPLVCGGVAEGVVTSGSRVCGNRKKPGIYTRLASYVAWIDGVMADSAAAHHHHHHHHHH

猪CFD [3] = target: T3, 猪CFD; assay: BLI (Octet QK), His-tagged CFD supernatant on Ni-NTA biosensor, Fab at 10 μg/ml

Binder	IC50, 全长抗体抑制大鼠血清致兔红细胞溶血 (ACH50法, 补体旁路途径活性) [1] [µg/mL]	binding result (人CFD蛋白)	binding result (猪CFD [2])	binding result (猪CFD [3])
B1	3860	binds	binds	–
B2	3960	–	binds	–
B3	–	–	–	binds
B4	–	–	–	binds
